This passage reports Kd, koff and kon results from patent US20240261446A1 (UNIVERSIT DE LI GE, published 2024).

For assay [1], the target named is T1, recombinant biotinylated CD38 (human, UniProt P28907 43-300, biotinylated (sites not given)).
T1 construct: also called biotinylated CD38 antigen; biotin-labelled recombinant CD38 protein
T1 sequence: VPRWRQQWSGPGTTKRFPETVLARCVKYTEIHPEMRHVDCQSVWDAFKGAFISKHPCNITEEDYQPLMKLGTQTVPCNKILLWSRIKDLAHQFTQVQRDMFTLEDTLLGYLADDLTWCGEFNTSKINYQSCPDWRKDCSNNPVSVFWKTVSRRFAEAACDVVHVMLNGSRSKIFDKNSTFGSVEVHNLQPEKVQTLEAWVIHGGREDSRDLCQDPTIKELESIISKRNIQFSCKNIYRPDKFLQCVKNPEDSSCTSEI
The assay can be described thus: BLI. (In general: Biolayer interferometry detects binding as a change in optical thickness at a sensor tip.)

Assay [2] has as its target T1, recombinant biotinylated CD38. The assay can be described thus: BLI, biotinylated CD38 on streptavidin sensors, 1:1 model.
For assay [3] the target is unchanged. The assay can be described thus: biolayer interferometry; biotinylated CD38 on streptavidin sensors; 1:1 binding model.
Protocol: Next, the ability of the anti-CD38 nanobodies to recognise the biotinylated CD38 antigen was investigated by Biolayer Interferometry (BLI) that allows determination of the binding kinetics parameters. The binding affinities were estimated by testing different concentrations (seven) of nanobodies with BLI. These experiments were realised in a 96-well plate and consisted of different steps. First, recombinant and biotinylated CD38 (10 μg/mL) was loaded on the surface of streptavidin-coupled sensors and washed using a PBS-based buffer (PBS 50 mM pH 7, BSA 0.1%, Tween 0.02%) in order to remove any unbound CD38. Then, biocytin was added to saturate the sensors and to avoid non-specific interactions during the subsequent association step. Afterwards, the nanobodies were diluted at concentrations and brought in contact with the CD38 coated sensors to monitor the association of the nanobodies to the receptors. […] Octet Data Analysis software version 8.0 was used for curve fitting and the determination of the binding parameters, including the KD, using a 1:1 binding model.
The target is the same in assay [4]. Put plainly: BLI, immobilised CD38 on SA sensors, OctetHTX, conjugate 100 to 20 nM.
Protocol: Values are from a serial dilution of conjugate from 100 to 20 nM.
In assay [5] the target is T2, human CD38 receptor expressed on cells (RPMI-8226 and other CD38+ cell lines) (human, UniProt P28907 1-300).
T2 construct: Endogenous CD38 of human myeloma and lymphoma cell lines; also called CD38^+ RPMI-8226 cells
T2 sequence: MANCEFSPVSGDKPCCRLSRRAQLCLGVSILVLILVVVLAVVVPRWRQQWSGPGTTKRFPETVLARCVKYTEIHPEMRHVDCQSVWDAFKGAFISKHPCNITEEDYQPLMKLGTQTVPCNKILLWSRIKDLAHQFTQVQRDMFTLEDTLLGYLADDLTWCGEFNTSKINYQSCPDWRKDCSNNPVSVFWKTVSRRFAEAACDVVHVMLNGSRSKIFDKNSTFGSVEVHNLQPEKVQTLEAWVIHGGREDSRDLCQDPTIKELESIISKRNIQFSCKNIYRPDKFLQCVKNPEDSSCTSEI
The assay can be described thus: saturation binding of the radiolabelled nanobody on CD38+ RPMI-8226 cells, 1 hour at 4 °C.

In assay [6] the target is T1, recombinant biotinylated CD38. Put plainly: BLI, biotinylated CD38 on streptavidin sensors, 10 to 150 nM conjugate, 1:1 model.
Protocol: First, recombinant and biotinylated CD38 (1 μg/mL) was loaded on the surface of streptavidin-coupled sensors and washed using a PBS-based buffer in order to remove any unbound CD38. Then, biocytin was added to saturate the sensors and to avoid non-specific interactions during the subsequent association step. Afterwards, the nanobodies-PNA1 were diluted at concentrations and brought in contact with the CD38 coated sensors to monitor the association of the nanobodies to the receptors. Finally, the sensors were placed in a fresh buffer in order to measure the dissociation rate of the nanobodies-PNA1 from the receptors. Octet Data Analysis software version 8.0 was used for curve fitting and the determination of the binding parameters, including the KD, using a 1:1 binding model.

B1: anti-CD38 nanobody 2F8 (Nb2F8) with C-terminal hexahistidine tag (VHH)
VHH: QVQLVESGGGSVQAGGSLRLSCAASGYTDSDYIMAWFRQAPGKEREVVATIYIGGTYIHYADSVKGRFTISRDNAENTVYLQMNNLKPEDTAMYYCAATKWRPFISTRAAEYNYWGQGTLVTVSS
notes: Produced in E. coli WK6 with a His6 tag and also in an untagged form; The flow cytometry used the His-tagged form (anti-His detection); also called sdAb 2F8
For B1, the equilibrium dissociation constant (Kd) (in general, the concentration at which binding is half-saturated) stood at 1.46 nM in assay [1], 0.73 nM in assay [2] and 0.734 nM in assay [3].

B2: sdAb 2F8 conjugated to the bifunctional chelator DTPA (2F8-DTPA) (VHH)
VHH: B1 VHH
modifications: CHX-A''-DTPA conjugated to the free epsilon-amino groups of lysines (number and positions not stated)
notes: also called Nb2F8-DTPA conjugate
In the case of B2, in assay [4], the Kd worked out at 1.6 nM; the off-rate (koff) (as a rule, the rate constant with which the complex falls apart) is 0.000412 s⁻¹; the kon (in general, the second-order rate constant of association) came to 258000 M⁻¹ s⁻¹.

B3: ^111In-DTPA-Nb2F8 (VHH)
VHH: B1 VHH
modifications: CHX-A''-DTPA on lysine epsilon-amino groups (positions not stated), chelating Indium-111
Take B3: in assay [5], the Kd came to 16.7 nM.

B4: Nb2F8-PNA1 conjugate (VHH)
VHH: B1 VHH
modifications: the C-terminal GGGSS is continued by the peptide nucleic acid a-g-t-c-t-g-g-a-t-g-t-a-g-t-c (SEQ ID NO: 15) and then E-K(DOTA)-AEEA-E-NH2
notes: Made by Sortase A ligation of PNA1 to Nb2F8-FL-SR-His6 and purified by reverse IMAC; also called nanobody 2F8 coupled with the PNA1
In the case of B4, in assay [6], the Kd turned out to be 13.4 nM.
